Test results taken from article PMC11112410 (Frontiers in Immunology, 2024).

Experiments:
[1] = molecular target: T1, recombinant Aln g 1.0101 (alder) (alder); test: ELISA; IgE inhibition: recombinant allergens (1 µg/ml) coated, pre-incubated with Nb32 (10 µg/ml) or Nb32ILZ (11.5 µg/ml) overnight at 4°C, then patients' sera 1:10; bound IgE detected with AKP-labelled anti-human-IgE antibody; conditions: both partners purified
T1 construct: alder pollen allergen Aln g 1, isoallergen Aln g 1.0101; source: bought: Biomay AG (recombinant)
T1 chain: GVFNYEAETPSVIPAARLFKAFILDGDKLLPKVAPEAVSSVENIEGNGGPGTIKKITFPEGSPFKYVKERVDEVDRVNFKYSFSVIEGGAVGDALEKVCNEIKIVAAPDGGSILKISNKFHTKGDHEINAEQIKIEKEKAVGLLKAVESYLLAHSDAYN

[2] = molecular target: T2, recombinant Cor a 1.0103 (hazel) (Corylus avellana, isoallergen Cor a …, UniProt Q08407, strain); test: as above; conditions: both partners purified
T2 construct: source: bought: Biomay AG (recombinant)

[3] = molecular target: T3, recombinant Bet v 1.0101 (birch) (birch); test: SPR; Biacore T200, CM5 chip, 25°C; allergens amine-coupled; nanobodies injected in HBS-EP+ (Nb32ILZ 0.172-44 nM, Nb32 0.313-40 nM), multicycle kinetics, 30 min dissociation; printed kd from the 1:1 (Langmuir) binding model for both nanobodies; conditions: both partners purified
T3 construct: major birch pollen allergen Bet v 1, isoallergen Bet v 1.0101; also called major birch pollen allergen; source: bought: Biomay AG (recombinant)
T3 chain: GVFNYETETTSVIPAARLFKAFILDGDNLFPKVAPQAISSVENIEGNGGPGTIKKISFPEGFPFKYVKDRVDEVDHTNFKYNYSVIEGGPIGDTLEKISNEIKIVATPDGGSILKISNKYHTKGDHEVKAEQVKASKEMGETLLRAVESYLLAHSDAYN

[4] = molecular target: T1, recombinant Aln g 1.0101 (alder); test: as above; conditions: both partners purified
[5] = molecular target: T2, recombinant Cor a 1.0103 (hazel); test: as above; conditions: both partners purified
[6] = molecular target: T4, recombinant Phl p 5.0101 (timothy grass) (timothy grass); test: ELISA; recombinant allergens or unrelated antigens (2 µg/ml in bicarbonate buffer) coated on the plate; nanobodies 2 µg/ml (Figure 2A) or 1 µg/ml (Figures 2B-C) in 0.1% BSA in PBST, overnight at 4°C; detected with HRP-labelled anti-HA-tag antibody; conditions: both partners purified
T4 construct: timothy grass pollen allergen Phl p 5, isoallergen Phl p 5.0101; also called major grass pollen allergen; source: bought: Biomay AG (recombinant)
T4 chain: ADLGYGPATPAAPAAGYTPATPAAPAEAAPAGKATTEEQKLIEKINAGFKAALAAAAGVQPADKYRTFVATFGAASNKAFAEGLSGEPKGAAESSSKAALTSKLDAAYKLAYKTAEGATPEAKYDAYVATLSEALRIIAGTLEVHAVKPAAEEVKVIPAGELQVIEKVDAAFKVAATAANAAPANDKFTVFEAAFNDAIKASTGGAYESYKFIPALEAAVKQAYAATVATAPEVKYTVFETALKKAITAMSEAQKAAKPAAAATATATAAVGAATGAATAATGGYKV

[7] = molecular target: T5, recombinant Car b 1.0109 (hornbeam) (Carpinus betulus, isoallergen Car b …, UniProt B6RQR6, strain); test: as above; conditions: both partners purified
T5 construct: hornbeam pollen allergen Car b 1, isoallergen Car b 1.0109; source: recombinant; provided by Prof; Barbara Bohle (IPA, MUV)

[8] = molecular target: T6, natural Cor a 1 in hazel pollen extract (hazel (endogenous in hazel pollen)); test: far-Western, overlay or dot blot; pollen extracts separated by reducing SDS-PAGE, blotted on nitrocellulose; strips incubated with Nb32 (1 µg/ml) or Nb32ILZ (1.15 µg/ml) in Buffer A at 4°C overnight; detected with HRP-labelled anti-HA-tag antibody; conditions: one partner purified
T6 construct: natural Cor a 1 of hazel pollen extract; Unpurified extract; band at around 17 kDa on blots; source: endogenous, hazel pollen (Allergon) extract
T6 chain: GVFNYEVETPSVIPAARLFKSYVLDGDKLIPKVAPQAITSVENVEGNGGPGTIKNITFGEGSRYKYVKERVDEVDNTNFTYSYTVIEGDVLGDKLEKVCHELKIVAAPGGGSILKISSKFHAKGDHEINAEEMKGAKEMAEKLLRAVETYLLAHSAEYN

- percent inhibition of patients' IgE binding [1]: 65%
- percent inhibition of patients' IgE binding [2]: 48%
- koff [3]: 9.9e-05 s⁻¹
- koff [4]: 0.0001 s⁻¹
- koff [5]: 0.00021 s⁻¹
- binding result [6]: no binding
- binding result [7]: binds
- binding result [8]: binds
B1: Bet v 1-specific nanobody monomer Nb32 (VHH)
VHH: QVQLVESGGGSVQSGGSLRLSCAASGYTYSSYCMAWFRQAPGKKREGVAAIDTDGSTDYADSVKGRFAISQDNAKNTLYLQMNSLKPEDTAMYYCAAYGGSCRRGTGSGYWGQGTQVTVSS
notes: as the chain of m1 (Nb32ILZ) without the ILZ domain: Nb32 VHH and hinge; also called Nb32 monomer; not shown: HA, C-terminal, kept; His6, C-terminal, kept
